Data taken from patent publication US5558864A, “Humanized and chimeric anti-epidermal growth factor receptor monoclonal antibodies” (Merck Patent Gesellschaft Mit Beschrankter Haftung, dated 1996).
Residue numbers refer to the chain shown, from its start. “Also recorded” adds a separate entry of the source. Values belong to the molecule of their own block, whether it stands above or below them.

Assays:
[1] = test system: EGFR solubilized from A431 membranes; experiment: Competitive binding of purified antibodies against biotin-labelled MAb 425 (Example 11); set-up: species or system human; settings: competition with biotin-labelled MAb 425, inhibition curves FIG. 10
Procedure: Biotin-labelled MAb 425 was Used to compete with unlabelled MAb 425 or derivates for binding to EGFR. Biotin-labelling occurred according to standard methods. EGFR was solubilized from A431 membranes by standard methods. A431 cells were commercially purchased. Detection was done after incubation with POD-conjugated streptavidin and substrate.

[2] = test system: EGF-receptor positive membranes (A431); experiment: Competition of 125I-labelled EGF and antibodies for EGF-receptor, SPA (Example 12); format: binding, human; settings: purified antibodies, 125I-EGF, FIG. 11
Procedure: Different probes of purified murine, chimeric and reshaped MAbs 425 were tested for their potency to compete with EGF regarding their binding to EGFR. The test was performed by competing ^125 I-labelled EGF (Amersham Corp., GB) and various antibodies for binding to EGF-receptor positive membranes (A431). The test system is based on SPA technology (Amersham).

[3] = test system: human epidermal growth factor receptor (EGFR); settings: cited from earlier work
[4] = test system: epidermoid and colorectal carcinoma-derived cell lines; settings: in vitro; cited from earlier work
[5] = test system: EGFR protein; experiment: ELISA for antigen binding to EGFR; settings: transfected cell supernatants, detection with anti-human IgG; VH versions co-transfected with RVL a425, ranked: highest > followed by > then followed by > low > never detectable
Procedure: Human IgG present in COS cell supernatants was detected by ELISA: In the ELISA assay for human IgG, 96-well plates were coated with goat anti-human IgG (whole molecule) and human IgG in the samples that bound to the plates was detected using alkaline phosphatase-conjugated goat anti-human IgG (gamma-chain specific). Purchasable purified human IgG was used as a standard. Binding to the antigen recognized by MAb 425 was determined in a second ELISA. Plates were coated with an EGFR protein preparation (obtainable, for example, according to Rodeck et al., 1980) and antibodies binding to EGFR were detected using either an anti-human IgG (gamma-chain specific) peroxidase conjugate (for chimeric and reshaped human antibodies) or an anti-mouse IgG (whole molecule) peroxidase conjugate (for the mouse MAb 425 antibody) (both conjugates supplied by Sigma). Purified murine MAb 425 was used as a standard.

[6] = test system: EGFR protein; experiment: Competition binding assay with biotinylated murine MAb 425 (cell supernatants); set-up: species or system human; settings: unpurified COS cell supernatants; relative levels of binding, not accurate affinity
Procedure: Murine MAb 425 was biotinylated using a correspondingly purchasable kit. ELISA plates were coated with an optimal dilution of the EGFR protein. Dilutions of the COS cell supernatants, in a volume of 50 μl, were mixed with 50 μl of the biotinylated murine MAb 425 (estimated by ELISA to be 1.75 μg/ml). Each COS cell supernatant was tested in duplicate. Plates were incubated at room temperature, overnight. Bound biotinylated murine MAb 425 was detected by the addition of a purchasable streptavidin horseradish peroxidase complex. A control with no competitor present allowed a value of percentage of inhibition or blocking to be calculated for each COS cell supernatant as follows: […]

[7] = target: T1, EGFR protein preparation (epidermal growth factor receptor) (human, UniProt P00533); experiment: competition ELISA on EGFR-coated plates, competitor biotinylated murine MAb 425 (FIG. 7, Panel B)
[8] = target: T1, EGFR protein preparation (epidermal …); experiment: antigen-binding ELISA on EGFR protein, COS supernatants, with RVL a425 (FIG. 6)
[9] = target: T1, EGFR protein preparation (epidermal …); experiment: antigen-binding ELISA on EGFR protein, cell supernatants
[10] = target: T1, EGFR protein preparation (epidermal …); experiment: antigen-binding ELISA on EGFR protein, supernatant of co-transfected cells
[11] = target: T1, EGFR protein preparation (epidermal …); experiment: antigen-binding ELISA on EGFR protein, cell supernatants (FIG. 8, Panel A)
[12] = target: T1, EGFR protein preparation (epidermal …); experiment: antigen-binding ELISA on EGFR protein, COS supernatants (FIG. 6)

binding potency (avidity) to EGFR [1]: similar
Molecule: MAb 425: murine monoclonal antibody raised against human A431 carcinoma cells, binds EGFR; hybridoma ATCC HB 9629 [reference compound]
potency to compete with EGF for binding to EGFR [2]: the same; also recorded: nearly identical
binding to EGFR epitope [3]: bind to a polypeptide epitope on the external domain of the human epidermal growth factor receptor (EGFR)
inhibition of EGF binding to EGFR ([3]; low and high affinity EGFR sites): inhibit the binding of epidermal growth factor (EGF) at both low and high affinity EGFR sites
tumor cell growth [4]: suppress tumor cell growth

binding to EGFR in antigen-binding ELISA [5]: binds well to EGFR protein
binding potency (avidity) to EGFR [1]: similar
potency to compete with EGF for binding to EGFR [2]: the same
Molecule: Chimeric 425 antibody: mouse 425 VL and VH regions with human kappa and gamma-1 constant regions
competition with labelled mouse 425 antibody for binding to antigen (percent inhibition of binding, relative avidity) [6]: just slightly less than that obtained when unlabelled mouse 425 antibody is competed with labelled mouse 425 antibody

binding result [7]: binds
B1: reshaped human 425 antibody with RVL a425 and RVH i425 (antibody, V domains shown)
VH: QVQLVQSGAEVKKPGASVKVSCKASGYTFTSHWMHWVRQAPGQGLEWVGEFNPSNGRTNYNEKFKSKATMTVDTSTNTAYMELSSLRSEDTAVYYCASRDYDYDGRYFDYWGQGTLVTVSS
VL: DIQMTQSPSSLSASVGDRVTITCSASSSVTYMYWYQQKPGKAPKLLIYDTSNLASGVPSRFSGSGSGTDFTFTISSLQPEDIATYYCQQWSSHIFTFGQGTKVEIK

binding result [8]: binds
B2: reshaped human 425 antibody with RVL a425 and RVH c425 (antibody, V domains shown)
VH: B1 VH with T30S
VL: B1 VL

binding result [8]: binds
B3: reshaped human 425 antibody with RVL a425 and RVH f425 (antibody, V domains shown)
VH: B1 VH with T30S, V48I
VL: B1 VL

binding result [9]: binds
B4: reshaped human 425 antibody with RVL b425 and RVH b425 (antibody, V domains shown)
VH: B1 VH with T30S, K67R, A68V
VL: B1 VL with F70Y

binding result [10]: no binding
B5: reshaped human 425 antibody with RVL a425 and RVH a425 (antibody, V domains shown)
VH: B1 VH with T30S, K67R, A68V, V72L
VL: B1 VL

binding result [10]: binds
B6: antibody with reshaped human 425 light chain version a and chimeric 425 heavy chain (antibody, V domains shown)
VH: QVQLQQPGAELVKPGASVKLSCKASGYTFTSHWMHWVKQRAGQGLEWIGEFNPSNGRTNYNEKFKSKATLTVDKSSSTAYMQLSSLTSEDSAVYYCASRDYDYDGRYFDYWGQGTTLTVSS
VL: B1 VL

binding result [8]: binds
B7: reshaped human 425 antibody with RVL a425 and RVH b425 (antibody, V domains shown)
VH: B1 VH with T30S, K67R, A68V
VL: B1 VL

binding result [11]: binds
B8: reshaped human 425 antibody with RVL b425 and RVH c425 (antibody, V domains shown)
VH: B1 VH with T30S
VL: B1 VL with F70Y

binding result [10]: no binding
B9: antibody with chimeric 425 light chain and reshaped human 425 heavy chain version a (antibody, V domains shown)
VH: B1 VH with T30S, K67R, A68V, V72L
VL: QIVLTQSPAIMSASPGEKVTMTCSASSSVTYMYWYQQKPGSSPRLLIYDTSNLASGVPVRFSGSGSGTSYSLTISRMEAEDAATYYCQQWSSHIFTFGSGTKLEIK

binding result [8]: binds
B10: reshaped human 425 antibody with RVL a425 and RVH h425 (antibody, V domains shown)
VH: B1 VH with K67R, A68V
VL: B1 VL

binding result [12]: no binding
B11: reshaped human 425 antibody with RVL a425 and RVH d425 (antibody, V domains shown)
VH: B1 VH with T30S, V48I, K67R, A68V, V72L
VL: B1 VL
